Values of other authors as cited in publication PMC5662943.

Biological target: PCNA (Homo sapiens) (UniProt P12004)
UniProt P12004, sequence (P12004 whole entry): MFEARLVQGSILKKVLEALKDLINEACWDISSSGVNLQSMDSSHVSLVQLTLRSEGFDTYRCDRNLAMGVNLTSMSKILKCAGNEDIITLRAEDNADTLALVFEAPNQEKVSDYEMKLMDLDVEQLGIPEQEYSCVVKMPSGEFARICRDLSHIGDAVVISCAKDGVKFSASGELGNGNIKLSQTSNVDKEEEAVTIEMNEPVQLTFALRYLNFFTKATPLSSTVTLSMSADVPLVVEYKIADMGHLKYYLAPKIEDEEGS

- Kd: 0.2 nM
Substance: RFC (from UniProt P35251)
